In the DeepSol protein solubility set:

Experiment: soluble on expression in E. coli; label from the status in PepcDB or PDB records

Row | Sequence | soluble on expression in E. coli
1 | MALNTNQLFAYLNRGDIAEFKFSPLFTTLFFPNVATFSTQNIMLDTLDIEEVTMSAFCSPMVGSQVQRDKGYETSTIKPGYMKPKHEIDPTKTIMRMAGEDPAQLNDPTYRRMRLITGNMRRQINAIKARVEWLAVNAVTTGKNIIEGEGIERYEIDWKIPEKNIIEQADGKKWSEQDKETHYPIYDIELYADQAGCPANVMIMGAEVWRTLRSFKKFRELYDLSRGSESAAELACKNLGEVVSFKGYLGDLALIVYSGKYTDSDGTEKYFLEPDLLVLGNTNNKGLVAYGAIMDQEAVRTGATQNMFYPKNWIEDGDPAIEYVQTHSAPQPVPADIRKFVTVKIA | not soluble
2 | MALSANSDAVTYAKAANTRTAAETGDRIEWVKLSLAFLPLATPVSDAKVLTGRQKPLTEVAIIIAEIRSRDGFEGVGFSYSKRAGGQGIYAHAKEIADNLLGEDPNDIDKIYTKLLWAGASVGRSGMAVQAISPIDIALWDMKAKRAGLPLAKLLGAHRDSVQCYNTSGGFLHTPLDQVLKNVVISRENGIGGIKLAVGQPNCAEDIRRLTAVREALGDEFPLMVDANQQWDRETAIRMGRKMEQFNLIWIEEPLDAYDIEGHAQLAAALDTPIATGEMLTSFREHEQLILGNASDFVQPDAPRVGGISPFLKIMDLAAKHGRKLAPHFAMEVHLHLSAAYPLEPWLEHFEWLNPLFNEQLELRDGRMWISDRHGLGFTLSEQARRWTQLTCEFGKRP | soluble
3 | MAMNLPADNEGKIKLAMSILVTIINDTGVPRNIRRAAANALTHLRDPRLSPAVRAANAISALEEVSQDPNMPFYARTRIWQVITILETVRD | not soluble
4 | MAMSFIKPIYQDINSILIGQKVKRPKSGTLSGHAAGEPFEKLVYKFLKENLSDLTFKQYEYLNDLFMKNPAIIGHEARYKLFNSPTLLFLLSRGKAATENWSIENLFEEKQNDTADILLVKDQFYELLDVKTRNISKSAQAPAIISAYKLAQTCAKMIDNKEFDLFDINYLEVDWELNGEDLVCVSTSFAELFKSEPSELYINWAAAMQIQFHVRDLDQGFNGTREEWAKSYLKHFVTQAEQRAISMIDKFVKPFKKYILRSRELVDPNSVQARLQDVDGTIDTRSKLAAAQLYTRASQPELAPEDPEDLEHHHHHH | soluble
5 | MANAASGMAVHDDCKLRFLELKAKRTHRFIVYKIEEKQKQVVVEKVGQPIQTYEEFAACLPADECRYAIYDFDFVTAENCQKSKIFFIAWCPDIAKVRSKMIYASSKDRFKRELDGIQVELQATDPTEMDLDVFRSRAN | soluble
6 | MANCQIAILYQRFQRVVFGISQLLCFSALISELTNQKEVAAWTYHYSTKAYSWNISRKYCQNRYTDLVAIQNKNEIDYLNKVLPYYSSYYWIGIRKNNKTWTWVGTKKALTNEAENWADNEPNNKRNNEDCVEIYIKSPSAPGKWNDEHCLKKKHALCYTASCQDMSCSKQGECLETIGNYTCSCYPGFYGPECEYVRECGELELPQHVLMNCSHPLGNFSFNSQCSFHCTDGYQVNGPSKLECLASGIWTNKPPQCLAAQCPPLKIPERGNMTCLHSAKAFQHQSSCSFSCEEGFALVGPEVVQCTASGVWTAPAPVCKAVQCQHLEAPNEGTMDCVHPLTAFAYGSSCKFECQPGYRVRGLDMLRCIDSGHWSAPLPTCEAISCEPLESPVHGSMDCSPSLRAFQYDTNCSFRCAEGFMLRGADIVRCDNLGQWTAPAPVCQALQCQDLPVPNEARVNCSHPFGAFRYQSVCSFTCNEGLLLVGASVLQCLATGNWNSVPPECQAIPCTPLLSPQNGTMTCVQPLGSSSYKSTCQFICDEGYSLSGPERLDCTRSGRWTDSPPMCEAIKCPELFAPEQGSLDCSDTRGEFNVGSTCHFSCNNGFKLEGPNNVECTTSGRWSATPPTCKGIASLPTPGVQCPALTTPGQGTMYCRHHPGTFGFNTTCYFGCNAGFTLIGDSTLSCRPSGQWTAVTPACRAVKCSELHVNKPIAMNCSNLWGNFSYGSICSFHCLEGQLLNGSAQTACQENGHWSTTVPTCQDDGKCPLNPHSHLGTYGVFTNAAFDPSP | soluble
7 | MANFMSKEAPFWKVKKLEEMSLSEWESLCDGCGLCCLHKVEDDDTGDIYATSVACRLLDSETCRCRNYVHRKSIVPDCIFLNLATIKTVRWLPENCAYRLIYEGKDLYWWHPLVSGNYQTVHQTQFSARGQIEIYEDELSSEEDYLQYITGILCEGR | not soluble
8 | MANIDYMMDPGWKYLRQAQDEALKEQAARRFDNKTHAWVPDAAEGFVTAAVAVQEGDNLTFTMPDGTPKKLTRAEVQEINPAKFEKTEDMSNLTFLNEASVLHNLRQRYYSMMIYTYSGLFCVFINPYKMLPIYTDSVASMYVNKRRAEMPPHLFAVSDEAFRNMMSDKENQSMLITGESGAGKTENTKKVIAYFAMIGSGNKDQKSESSLENQVVQANPAIEAFGNGATTRNYNSSRYGKFIRIHFDRKGKLVGGDIEHYLLEKSRVIKQAPGERSYHIFYQIMTQKALRERYGLSDNIRDYKFVSQAEITVPGMNDTEEWQITDGAFNVMGFSEREKDDLYKLCSAIMHIGNSTFKQKPRDEQAEVDDMTSPTAACKLFGINTDQFLNALTRPRIKVGMEWVNKGQNVQQVDWAVGALSKAIYARMFNWLIKRVNKTLQANSDEMVYYIGVLDIAGFEIFDRNSFEQLWINFVNEKLQQFFNHHMFVLEQEEYQREGIEWTFIDFGLDLQSCIELIEKPLGIVSMLDEECIVPKASDMTYVDKLLTQHLGKHPNFQKAKPPKGKQAEAHFSIMHYAGTVRYNAEQWLDKNKDPLNDSAVAILKTSDKEGVLYQLWEEYQTDVDREESEKRGKAQAKKKGKSASFLTVSTMYRESLTSLMTMLHTTHPHFIRCIIPNEKKTSGLIDAPLVLNQLTCNGVLEGIRICRKGFPNRMMFADFRFRYAILAADEASDKDAAKASKAMLRKLSKNNQLNVDTFKVGTTKVFFRAGMLARLEELRDEALSAVILKFQCSLRHYLAQLEYKRRLDREDAYPIIQENIRAWIKLRSWPWYRLFSRLKPMLKGMKSNAEIEALEKKCKELEENHKREEEARKKYADELRAKIDQYEETKAAHERDRMLLDKRNKEIEELNRNLKAESESNYENAKKASELERLREKEKKEWDEKERRMQMEAENEANQHKTQTEKLKDQISTLQTDFEKVSAQRKAQEQMNAELVDEVASFKQKAERAEEQKKKLVEDLDSLDDKLAAEKRANNEHVKHNKKLEGQLKATQTQLTLALKEKHEFDVDCKRRESEIGELKLKAQGDANLISKLQAMLRKCISRIEELEEDLLEERKLRMKAERQFNELRSEYEVLQEQMAEASGQLTAEAHINKVRAEEVSNLRRDLQKRNLNHEAYISDLCNMQYATVNNLRNLSQQSATLESEALRILDHRRALSKQPLPRVYVEDPDSDSD | not soluble
9 | MANKGIVPVKISLTEGDFYTLWAPQWREHGAEWQAFLGSGDDLYVFESPAAVLAYIESGARHDLSDHPKWGAFMAGADDRVVPTDRQEYDLIGVPALLAERPSHTNVSAVARCFAITRSLGDVTATIPVQSFFSSHSILMNTERGGNHFTGDSGLGEWTGIGRIVLTSWNNVIDALDSAITVHTDGNAEAISAAAARIDAATAEAEQRRIAEEKKKKADAEKVDPYDATPWAAAGIDPIKISIDGRTVYTLRTYIEAQPVFLGKYGEIFTFNSGKSLVRWLVEHDDHDLARVSTWEDLMVPVNAGELDITVHPDNVYSFNGLTRDINTSVEAVDTAQMARAYELLADAADWAADDSLNSYFLTNPRMQDYISYMIGSTRVSGYTPTPPFTEHSESWAEMEKMLTKRFSKF | not soluble
10 | MANPAAAAGPSGGARSFLQAVSTVTEEAPSPLRVVQMEGLAVLKIIKHCEEFAPALVTGQLLGLDVGSVLEVTNCFPFPMREDDEEADADGANYQLEMMRCLREVNVDNNTVGWYQSCLLGSFQTVELIETFMNYQENIRRCVCIVYDPSRSNQGVLALKALKLTDSFMDLYRNNGLTGEKLREKKLSWVDIFEEIPIKVSNSALVSAFMTELEPESPVSQCDFDRLKLSTAPFMERNLEFLIGCMDDLSSEQNKFQYYYRNVSRQQSQQQAWLQKRRQENMARKAAGEEPLPEEDPSNPIFKPIPEPSRLEGYLVTNQISSYCNHINGVAGQNFNRLYLMKALQED | soluble
11 | MANRGGEYLYDELWKLCAGPLVDVPQAQERVYYFPQGHMEQLEASTQQVDLNTMKPLFVLPPKILCNVMNVSLQAEKDTDEVYAQITLIPVGTEVDEPMSPDPSPPELQRPKVHSFSKVLTASDTSTHGGFSVLRKHATECLPPLDMTQQTPTQELVAEDVHGYQWKFKHIFRGQPRRHLLTTGWSTFVTSKRLVAGDTFVFLRGENGELRVGVRRANLQQSSMPSSVISSHSMHLGVLATARHATQTKTMFIVYYKPRTSQFIISLNKYLEAMSNKFSVGMRFKMRFEGEDSPERRYSGTVIGVKDCSPHWKDSKWRCLEVHWDEPASISRPNKVSPWEIEPFVNSENVPKSVMLKNKRPRQVSEVSALDVGITASNLWSSVLTQPHEFAQSCITSQWSSPQQCHRDANEDAKKSDWLNNSYSVSNVAKDSTLNDQMVSPVEQKKPETTANYRLFGIDLMSSSLAVPEEKTAPMRPINISKPTMDSHSDPKSEISKVSEEKKQEPAEGSPKEVQSKQSSSTRSRTKVQMQGVPVGRAVDLNALKGYNELIDDIEKLFDIKGELRSRNQWEIVFTDDEGDMMLVGDDPWPEFCNMVKRIFIWSKEEVKKMTPGNQLRMLLREVETTLTTTSKTDNHSN | soluble
12 | MANRTEKAAKTVKGTNPQFLVEKIIRQRIYDSMYWKEHCFALTAELVVDKGMDLRYIGGIYAGNIKPTPFLCLALKMLQIQPDKDIVLEFIQQEEFKYIRALGAMYLRLTFDSTEIYKYLEPLYNDFRKLRYMNKMGRFEAIYMDDFIDNLLREDRYCDIQLPRLQKRWALEEVDMLPSYKSLLDGDLVAMSDSDSEEEEVTKKEKPRLTSRRRSRSRDRERDVGDRREVREREKLKERRERGDDEPGPSSSGSGRRDDRDDRRRDRDRSRDRDRRDRRDDDRRDKKKESRRGGADNDEEREIAEANALRAKLGLAPLER | not soluble
13 | MAPAEILNGKEISAQIRARLKNQVTQLKEQVPGFTPRLAILQVGNRDDSNLYINVKLKAAEEIGIKATHIKLPRTTTESEVMKYITSLNEDSTVHGFLVQLPLDSENSINTEEVINAIAPEKDVDGLTSINAGRLARGDLNDCFIPCTPKGCLELIKETGVPIAGRHAVVVGRSKIVGAPMHDLLLWNNATVTTCHSKTAHLDEEVNKGDILVVATGQPEMVKGEWIKPGAIVIDCGINYVPDDKKPNGRKVVGDVAYDEAKERASFITPVPGGVGPMTVAMLMQSTVESAKRFLEKFKPGKWMIQ | soluble
14 | MAPLLHQVSNYGYGKCVTVRFCDGKTYDAKDGESRAINRDLNVGAVKIYRDSKDEDQAYVLNYFPYNLELNDNRGKNKGLQGYRVLIWKQYGTINLDVFYDEMKIWCKTNDLGIYTSDGELKYYKSVIARHREEGGISVIGFETAEGATTAAAKKEEDENEEASAKVKEANEEESTNA | soluble
15 | MAPQKCFLQIKGMTCASCVSNIERNLQKEAGVLSVLVALMAGKAEIKYDPEVIQPLEIAQFIQDLGFEAAVMEDYAGSDGNIELTITGMTCASCVHNIESKLTRTNGITYASVALATSKALVKFDPEIIGPRDIIKIIEEIGFHASLAQ | soluble
16 | MAPQNKPYFTYNNEIIGEATQSNPLGNVVRTTISFKSDDKVSDLISTISKAVQFHKNNSASGENVTINENDFINQLKANGVTVKTVQPSNKNEKAYEAIDKVPSTSFNITLSATGDNNQTATIQIPMVPQGASTPTDTTQNPQINWTKGGQAQSSSLNGQVFQVAVGSNFNPLNFTNSNGENIIVSAQQSKNNTTFASIEATSNPVNTSEAGRYYNVTLTATGNTGKKTTATYTVLITSSQKQTLYGNGESTISTYSIYGNNVLSNSTTFKDGDQVYVSDQTKTVGGVSYSQVSPKSKNDANSSNIWVKTSALVKPAGDTNVKTYPVMVDSRAYDKNGNYLGHMYYAYDNIDIVPTVVTINGKTYYKVANKDEYVRVTNITGNQRTLKHNAYIYWSSYRRTPGTGKMYRGQTVTTYGPQMKFKNGKKYYRIEGCRNNNKRYIKAVNFYLEHHHHHH | soluble
